Reference: patent publication US20200199204A1

Key:
Experiment in all cases: cell-based or functional assay
[1] = target: HIV-1 Env of 0260.v5.c36 (HIV-1)
[2] = target: HIV-1 Env of 191821.E6.1 (HIV-1)
[3] = target: HIV-1 Env of 3016.V5.c36 (HIV-1)
[4] = target: HIV-1 Env of 6405.v4.c34 (HIV-1)
[5] = target: HIV-1 Env of 6535.3 (HIV-1)
[6] = target: HIV-1 Env of 96ZM651.02 (HIV-1)
[7] = target: HIV-1 Env of AC10.29 (HIV-1)
[8] = target: HIV-1 Env of BG505.w6m (HIV-1)
[9] = target: HIV-1 Env of C1080.c3 (HIV-1)
[10] = target: HIV-1 Env of CAAN.A2 (HIV-1)
[11] = target: HIV-1 Env of CAP210.E8 (HIV-1)
[12] = target: HIV-1 Env of CAP244.D3 (HIV-1)
[13] = target: HIV-1 Env of CAP256.PI (HIV-1)
[14] = target: HIV-1 Env of CAP256.SU (HIV-1)
[15] = target: HIV-1 Env of CAP45.G3 (HIV-1)
[16] = target: HIV-1 Env of CM244.ec1 (HIV-1)
[17] = target: HIV-1 Env of CNE3 (HIV-1)
[18] = target: HIV-1 Env of DU156.12 (HIV-1)
[19] = target: HIV-1 Env of DU172.17 (HIV-1)
[20] = target: HIV-1 Env of DU422.01 (HIV-1)
[21] = target: HIV-1 Env of KER2008.12 (HIV-1)
[22] = target: HIV-1 Env of KER2018.11 (HIV-1)
[23] = target: HIV-1 Env of MB201 (HIV-1)
[24] = target: HIV-1 Env of MB539.2B7 (HIV-1)
[25] = target: HIV-1 Env of PVO.04 (HIV-1)
[26] = target: HIV-1 Env of Q168.a2 (HIV-1)
[27] = target: HIV-1 Env of Q23.17 (HIV-1)
[28] = target: HIV-1 Env of Q259.d2.17 (HIV-1)
[29] = target: HIV-1 Env of Q461.e2 (HIV-1)
[30] = target: HIV-1 Env of Q769.d22 (HIV-1)
[31] = target: HIV-1 Env of Q842.d12 (HIV-1)
[32] = target: HIV-1 Env of QH0692.42 (HIV-1)
[33] = target: HIV-1 Env of REJO.67 (HIV-1)
[34] = target: HIV-1 Env of RHPA.7 (HIV-1)
[35] = target: HIV-1 Env of RW020.2 (HIV-1)
[36] = target: HIV-1 Env of SC422.8 (HIV-1)
[37] = target: HIV-1 Env of TH976.17 (HIV-1)
[38] = target: HIV-1 Env of THRO.18 (HIV-1)
[39] = target: HIV-1 Env of TRJO.58 (HIV-1)
[40] = target: HIV-1 Env of TRO.11 (HIV-1)
[41] = target: HIV-1 Env of UG037.8 (HIV-1)
[42] = target: HIV-1 Env of WITO.33 (HIV-1)
[43] = target: HIV-1 Env of ZM109.4 (HIV-1)
[44] = target: HIV-1 Env of ZM135.10a (HIV-1)
[45] = target: HIV-1 Env of ZM197.7 (HIV-1)
[46] = target: HIV-1 Env of ZM214.15 (HIV-1)
[47] = target: HIV-1 Env of ZM233.6 (HIV-1)
[48] = target: HIV-1 Env of ZM249.1 (HIV-1)
[49] = target: HIV-1 Env of ZM53.12 (HIV-1)

CAP256-VRC26.17 (antibody)
IC50 [1]: > 50 µg/mL
IC50 [2]: 35.4 µg/mL
IC50 [3]: 0.011 µg/mL
IC50 [4]: > 50 µg/mL
IC50 [5]: > 50 µg/mL
IC50 [6]: > 50 µg/mL
IC50 [7]: > 50 µg/mL
IC50 [8]: 0.4 µg/mL
IC50 [9]: > 50 µg/mL
IC50 [10]: > 50 µg/mL
IC50 [11]: 0.006 µg/mL
IC50 [12]: > 50 µg/mL
IC50 [13]: > 50 µg/mL
IC50 [14]: 3 ng/mL
IC50 [15]: > 50 µg/mL
IC50 [16]: 0.14 µg/mL
IC50 [17]: > 50 µg/mL
IC50 [18]: 18.7 µg/mL
IC50 [19]: > 50 µg/mL
IC50 [20]: 0.51 µg/mL
IC50 [21]: > 50 µg/mL
IC50 [22]: 0.064 µg/mL
IC50 [23]: > 50 µg/mL
IC50 [24]: > 50 µg/mL
IC50 [25]: > 50 µg/mL
IC50 [26]: > 50 µg/mL
IC50 [27]: 6.42 µg/mL
IC50 [28]: 0.076 µg/mL
IC50 [29]: > 50 µg/mL
IC50 [30]: > 50 µg/mL
IC50 [31]: > 50 µg/mL
IC50 [32]: > 50 µg/mL
IC50 [33]: > 50 µg/mL
IC50 [34]: > 50 µg/mL
IC50 [35]: > 50 µg/mL
IC50 [36]: > 50 µg/mL
IC50 [37]: > 50 µg/mL
IC50 [38]: > 50 µg/mL
IC50 [39]: > 50 µg/mL
IC50 [40]: > 50 µg/mL
IC50 [41]: > 50 µg/mL
IC50 [42]: > 50 µg/mL
IC50 [43]: > 50 µg/mL
IC50 [44]: > 50 µg/mL
IC50 [45]: 2.2 µg/mL
IC50 [46]: > 50 µg/mL
IC50 [47]: 6 ng/mL
IC50 [48]: 1.23 µg/mL
IC50 [49]: 0.005 µg/mL

CAP256-VRC26.18 (antibody)
IC50 [1]: > 50 µg/mL
IC50 [2]: 10.4 µg/mL
IC50 [3]: 0.028 µg/mL
IC50 [4]: > 50 µg/mL
IC50 [5]: > 50 µg/mL
IC50 [6]: > 50 µg/mL
IC50 [7]: > 50 µg/mL
IC50 [8]: 1.9 µg/mL
IC50 [9]: 2.15 µg/mL
IC50 [10]: > 50 µg/mL
IC50 [11]: 0.019 µg/mL
IC50 [12]: > 50 µg/mL
IC50 [13]: > 50 µg/mL
IC50 [14]: 8 ng/mL
IC50 [15]: > 50 µg/mL
IC50 [16]: 1.42 µg/mL
IC50 [17]: > 50 µg/mL
IC50 [18]: > 50 µg/mL
IC50 [19]: > 50 µg/mL
IC50 [20]: 5.4 µg/mL
IC50 [21]: > 50 µg/mL
IC50 [22]: 0.03 µg/mL
IC50 [23]: > 50 µg/mL
IC50 [24]: > 50 µg/mL
IC50 [25]: > 50 µg/mL
IC50 [26]: > 50 µg/mL
IC50 [27]: 35 µg/mL
IC50 [28]: 5.31 µg/mL
IC50 [29]: > 50 µg/mL
IC50 [30]: > 50 µg/mL
IC50 [31]: > 50 µg/mL
IC50 [32]: > 50 µg/mL
IC50 [33]: > 50 µg/mL
IC50 [34]: > 50 µg/mL
IC50 [35]: > 50 µg/mL
IC50 [36]: > 50 µg/mL
IC50 [37]: > 50 µg/mL
IC50 [38]: > 50 µg/mL
IC50 [39]: > 50 µg/mL
IC50 [40]: > 50 µg/mL
IC50 [41]: > 50 µg/mL
IC50 [42]: > 50 µg/mL
IC50 [43]: > 50 µg/mL
IC50 [44]: > 50 µg/mL
IC50 [45]: 1.89 µg/mL
IC50 [46]: > 50 µg/mL
IC50 [47]: 37 ng/mL
IC50 [48]: > 50 µg/mL
IC50 [49]: 0.01 µg/mL

CAP256-VRC26.19 (antibody)
IC50 [1]: > 50 µg/mL
IC50 [2]: 29.2 µg/mL
IC50 [3]: 0.039 µg/mL
IC50 [4]: > 50 µg/mL
IC50 [5]: > 50 µg/mL
IC50 [6]: > 50 µg/mL
IC50 [7]: 2.98 µg/mL
IC50 [8]: 0.13 µg/mL
IC50 [9]: 14.5 µg/mL
IC50 [10]: > 50 µg/mL
IC50 [11]: 0.025 µg/mL
IC50 [12]: > 50 µg/mL
IC50 [13]: > 50 µg/mL
IC50 [14]: 15 ng/mL
IC50 [15]: > 50 µg/mL
IC50 [16]: 0.024 µg/mL
IC50 (neutralization, TZM-bl) [17]: > 50 µg/mL
IC50 [18]: 1.34 µg/mL
IC50 [19]: > 50 µg/mL
IC50 [20]: 0.057 µg/mL
IC50 [21]: > 50 µg/mL
IC50 [22]: 0.005 µg/mL
IC50 [23]: > 50 µg/mL
IC50 [24]: 0.431 µg/mL
IC50 [25]: 1.1 µg/mL
IC50 [26]: 7.04 µg/mL
IC50 [27]: 0.233 µg/mL
IC50 [28]: 2.16 µg/mL
IC50 [29]: 15.6 µg/mL
IC50 [30]: > 50 µg/mL
IC50 [31]: 0.16 µg/mL
IC50 [32]: > 50 µg/mL
IC50 [33]: > 50 µg/mL
IC50 [34]: > 50 µg/mL
IC50 [35]: > 50 µg/mL
IC50 [36]: > 50 µg/mL
IC50 (neutralization, TZM-bl) [37]: > 50 µg/mL
IC50 [38]: > 50 µg/mL
IC50 [39]: > 50 µg/mL
IC50 [40]: > 50 µg/mL
IC50 [41]: > 50 µg/mL
IC50 [42]: > 50 µg/mL
IC50 [43]: 2.82 µg/mL
IC50 [44]: > 50 µg/mL
IC50 [45]: 0.135 µg/mL
IC50 [46]: > 50 µg/mL
IC50 [47]: 9 ng/mL
IC50 [48]: 0.076 µg/mL
IC50 [49]: 0.02 µg/mL
